Laboratory results published in paper PMC6942045.

Target: K63-di-Ub (UniProt P0CG47)
Experiment: ITC

| Kd [µM] | Substance |
| --- | --- |
| 6.4 | Rap80 UIMs (60-144 amino acids), GST cleaved (from UniProt Q96RL1 60-144) (domain or fragment) |
| 20 | Cezanne2 UBA (1-88 aa), GST cleaved (from UniProt Q8TE49 1-88) (domain or fragment) |
| 20 | Cezanne UBA (1-66 aa), GST cleaved (from UniProt Q6GQQ9 1-66) (domain or fragment) |
